Data from publication doi:10.1101/2022.09.23.509211 (bioRxiv, 2022).

Target: Rabbit skeletal muscle actin (actin filaments, F-actin) (rabbit, UniProt P68135 1-377)
Assay: co-sedimentation

B1: Mouse metallothionein-3 (MT-3), recombinant, cleaved WT MT-3 (natural protein)
chain: not shown
Question: B1 was tested. Which Kd did it give?
Answer: > 20 µM
